In patent publication US20230348603A1 (VERSEAU THERAPEUTICS, published 2023):

Tests used:
[1] = target: T1, Human VSIG4-L-Fc (human); test: BLI binning on hVSIG4-L-Fc, competitor 12A08 first;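 also: normalized to binding of second antibody without first competitor antibody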
T1 construct: also called hVSIG4-L-Fc; hVSIG4-L

[2] = target: T1, Human VSIG4-L-Fc; test: BLI binning on hVSIG4-L-Fc, competitor 13H11 first;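 also: normalized to binding of second antibody without first competitor antibody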
[3] = target: T1, Human VSIG4-L-Fc; test: BLI binning on hVSIG4-L-Fc, competitor 12A12 first;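 also: normalized to binding of second antibody without first competitor antibody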
[4] = target: T2, Human VSIG4-L-CHO (human VSIG4 long isoform on CHO-K1 cells) (human, UniProt Q9Y279 20-399); test: flow cytometry (FJB), 200 nM mAb, huVSIG4-L CHO-K1 cells
T2 construct: also called hVSIG4-L (flow cytometry)
T2 sequence: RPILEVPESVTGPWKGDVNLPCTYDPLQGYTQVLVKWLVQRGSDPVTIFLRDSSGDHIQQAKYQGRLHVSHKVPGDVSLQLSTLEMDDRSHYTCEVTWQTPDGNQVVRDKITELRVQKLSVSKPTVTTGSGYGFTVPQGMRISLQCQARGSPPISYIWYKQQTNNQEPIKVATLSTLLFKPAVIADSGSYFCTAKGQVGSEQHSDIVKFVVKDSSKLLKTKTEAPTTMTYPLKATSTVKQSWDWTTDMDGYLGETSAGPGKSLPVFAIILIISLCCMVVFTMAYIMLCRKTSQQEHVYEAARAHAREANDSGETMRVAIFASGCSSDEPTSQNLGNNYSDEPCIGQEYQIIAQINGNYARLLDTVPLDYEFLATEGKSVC

[5] = target: T1, Human VSIG4-L-Fc; test: ligand blocking of C3b, IgG
[6] = target: T1, Human VSIG4-L-Fc; test: BLI cross-blocking on hVSIG4-L-Fc, competitor 12A12 first
[7] = target: T3, Human VSIG4-L-His (human, UniProt Q9Y279 20-283); test: SPR (FJB)
T3 construct: long isoform ECD with His tag; also called hVSIG4-L
T3 sequence: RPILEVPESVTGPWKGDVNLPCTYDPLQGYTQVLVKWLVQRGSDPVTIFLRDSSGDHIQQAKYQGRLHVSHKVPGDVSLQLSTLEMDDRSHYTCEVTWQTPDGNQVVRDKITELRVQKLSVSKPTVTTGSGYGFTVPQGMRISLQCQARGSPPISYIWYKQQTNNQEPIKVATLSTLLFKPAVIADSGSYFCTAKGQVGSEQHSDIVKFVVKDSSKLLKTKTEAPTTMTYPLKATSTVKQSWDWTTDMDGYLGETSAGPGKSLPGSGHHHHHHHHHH

[8] = target: T4, Cynomolgus Monkey VSIG4-L-His (cynomolgus monkey); test: SPR (FJB)
T4 construct: ECD with His tag; also called cyVSIG4-L; cyno VSIG4-L-His
T4 chain: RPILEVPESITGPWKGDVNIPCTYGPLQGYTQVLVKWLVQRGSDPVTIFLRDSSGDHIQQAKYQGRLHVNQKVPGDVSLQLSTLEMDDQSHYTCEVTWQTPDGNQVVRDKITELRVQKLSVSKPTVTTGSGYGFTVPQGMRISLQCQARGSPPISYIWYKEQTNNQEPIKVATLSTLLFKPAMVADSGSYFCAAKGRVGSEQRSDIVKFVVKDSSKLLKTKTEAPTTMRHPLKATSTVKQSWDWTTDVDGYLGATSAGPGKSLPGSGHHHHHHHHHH

[9] = target: T1, Human VSIG4-L-Fc; test: BLI binning on hVSIG4-L-Fc, competitor 16E10 first;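 also: normalized to binding of second antibody without first competitor antibody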
[10] = target: T1, Human VSIG4-L-Fc; test: ligand competition ELISA (FJB), blocked ligand C3b
[11] = target: T1, Human VSIG4-L-Fc; test: BLI binning on hVSIG4-L-Fc, competitor 15C04 first;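 also: normalized to binding of second antibody without first competitor antibody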
[12] = target: T1, Human VSIG4-L-Fc; test: BLI cross-blocking on hVSIG4-L-Fc, competitor 16G02 first
[13] = target: T1, Human VSIG4-L-Fc; test: BLI binning on hVSIG4-L-Fc, competitor 14C05 first;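 also: normalized to binding of second antibody without first competitor antibody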
[14] = target: T3, Human VSIG4-L-His; test: BLI, IgG on AHC sensor, antigen 100 nM
[15] = target: T4, Cynomolgus Monkey VSIG4-L-His; test: BLI, IgG on AHC sensor, antigen 100 nM
[16] = target: T1, Human VSIG4-L-Fc; test: BLI binning on hVSIG4-L-Fc, competitor 16E03 first;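 also: normalized to binding of second antibody without first competitor antibody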
[17] = target: T1, Human VSIG4-L-Fc; test: BLI binning on hVSIG4-L-Fc, competitor 15C03 first;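 also: normalized to binding of second antibody without first competitor antibody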
[18] = target: T2, Human VSIG4-L-CHO (human VSIG4 long …); test: flow cytometry, CHO-K1 cells expressing hVSIG4-L
[19] = target: T1, Human VSIG4-L-Fc; test: BLI cross-blocking on hVSIG4-L-Fc, competitor 14C05 first
[20] = target: T1, Human VSIG4-L-Fc; test: BLI binning on hVSIG4-L-Fc, competitor 14D12 first;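 also: normalized to binding of second antibody without first competitor antibody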
[21] = target: T3, Human VSIG4-L-His; test: BLI (Octet), IgG on AHC sensor, antigen 100 nM
[22] = target: T5, Human VSIG4-S-His (human, UniProt Q9Y279 20-283); test: BLI (Octet), IgG on AHC sensor, antigen 100 nM
T5 construct: short isoform ECD with His tag; also called hVSIG4-S; VISG4-S-His
T5 sequence: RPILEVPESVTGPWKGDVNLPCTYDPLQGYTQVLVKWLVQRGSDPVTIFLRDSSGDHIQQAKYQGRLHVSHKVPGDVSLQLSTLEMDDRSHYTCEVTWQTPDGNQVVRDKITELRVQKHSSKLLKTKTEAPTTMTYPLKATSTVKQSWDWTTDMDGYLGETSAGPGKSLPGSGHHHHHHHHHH

[23] = target: T4, Cynomolgus Monkey VSIG4-L-His; test: BLI (Octet), IgG on AHC sensor, antigen 100 nM
[24] = target: T1, Human VSIG4-L-Fc; test: ELISA, IgG 50 nM on coated antigen;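 also: Mouse-human chimeric IgG4 antibodies incubated 1 h on plate-coated VSIG4 proteins, bound IgG detected with HRP-labelled anti-human IgG, irrelevant antibody and protein as specificity controls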
[25] = target: T6, Human VSIG4-S-Fc (human); test: ELISA, IgG 50 nM on coated antigen;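 also: Mouse-human chimeric IgG4 antibodies incubated 1 h on plate-coated VSIG4 proteins, bound IgG detected with HRP-labelled anti-human IgG, irrelevant antibody and protein as specificity controls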
T6 construct: short isoform ECD fused to human Fc1; also called hVSIG4-S

[26] = target: T4, Cynomolgus Monkey VSIG4-L-His; test: ELISA, IgG 50 nM on coated antigen;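 also: Mouse-human chimeric IgG4 antibodies incubated 1 h on plate-coated VSIG4 proteins, bound IgG detected with HRP-labelled anti-human IgG, irrelevant antibody and protein as specificity controls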
[27] = target: T7, Mouse VSIG4-His (mouse); test: ELISA, IgG 50 nM on coated antigen;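 also: Mouse-human chimeric IgG4 antibodies incubated 1 h on plate-coated VSIG4 proteins, bound IgG detected with HRP-labelled anti-human IgG, irrelevant antibody and protein as specificity controls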
T7 construct: ECD with His tag; also called mVSIG4
T7 chain: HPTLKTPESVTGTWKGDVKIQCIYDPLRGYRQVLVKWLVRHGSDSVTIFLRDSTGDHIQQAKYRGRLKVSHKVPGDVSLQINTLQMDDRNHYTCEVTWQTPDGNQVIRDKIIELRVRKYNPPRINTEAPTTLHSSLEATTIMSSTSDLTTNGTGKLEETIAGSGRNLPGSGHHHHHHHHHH

[28] = target: T1, Human VSIG4-L-Fc; test: BLI binning on hVSIG4-L-Fc, competitor 15A06 first;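 also: normalized to binding of second antibody without first competitor antibody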
[29] = target: T2, Human VSIG4-L-CHO (human VSIG4 long …); test: flow cytometry (FJB), 200 nM mAb, huVSIG4-L CHO-K1 over parental CHO-K1
[30] = target: T1, Human VSIG4-L-Fc; test: ligand competition ELISA (FJB), blocked ligand iC3b, 200 nM mAb
[31] = target: T4, Cynomolgus Monkey VSIG4-L-His; test: ELISA, IgG 50 nM on coated antigen; ELISA, bivalent IgG on plate-coated cyVSIG4-L (avid format)
[32] = target: T1, Human VSIG4-L-Fc; test: ligand competition ELISA (FJB), blocked ligand C3b, 200 nM mAb
[33] = target: T1, Human VSIG4-L-Fc; test: ligand blocking of iC3b, IgG
[34] = target: T1, Human VSIG4-L-Fc; test: ligand competition ELISA (FJB), blocked ligand iC3b

T6 sequence (chain, as listed by the source limits assumed): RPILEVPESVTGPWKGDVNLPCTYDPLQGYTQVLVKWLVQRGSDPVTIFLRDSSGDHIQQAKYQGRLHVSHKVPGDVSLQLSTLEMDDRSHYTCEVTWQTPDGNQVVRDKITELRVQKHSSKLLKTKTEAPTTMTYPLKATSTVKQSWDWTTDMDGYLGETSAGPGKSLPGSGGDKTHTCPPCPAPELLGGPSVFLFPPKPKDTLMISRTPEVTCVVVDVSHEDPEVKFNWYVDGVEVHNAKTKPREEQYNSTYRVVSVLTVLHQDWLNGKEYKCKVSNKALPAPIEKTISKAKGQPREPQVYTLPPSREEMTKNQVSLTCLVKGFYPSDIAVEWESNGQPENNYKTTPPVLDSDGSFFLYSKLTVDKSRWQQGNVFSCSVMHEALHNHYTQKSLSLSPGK

B1: 14C05 mouse/human chimeric IgG4 (S228P) kappa (antibody, V domains shown)
VH: EVMLVESGPELKKPGETVKISCKASGYTFTNYGMNWVKQAPGKGLKWMGSINTYTGEATYADDFKGRFAFSLETSANTAYLQIDNLKNEDTATYFCARGDYYGRGTWFAYWGQGTLVTVSA
VL: ETTVTQSHKFMSTSVGDRVSITCKASQDVSTAVAWYQQKPGQSPKLLIYSASYRYPGVPDRFTGSGSGTDFTFTISSVQAEDLAVYYCQQDYSSPWTFGGGTKLEIKR
normalized maximum binding nm shift [1]: 0.75 normalized | normalized maximum binding nm shift [2]: 0.66 normalized | normalized maximum binding nm shift [3]: 0.83 normalized | Binding (200 nM) MFI [4]: 109000 MFI | Percent Blocking C3b [5]: 96% | binding signal (nm shift) [6]: 0.83 nm | Kd [7]: 1.7 nM | Kd [8]: 5.4 nM | normalized maximum binding nm shift [9]: 0.87 normalized | IC50 [10]: 2.4 nM | normalized maximum binding nm shift [11]: 0.76 normalized | binding signal (nm shift) [12]: 0.16 nm | normalized maximum binding nm shift [13]: 0.11 normalized | KD relative to parental chimera [14]: 1 fold | KD relative to parental chimera [15]: 1 fold | normalized maximum binding nm shift [16]: 0.62 normalized | normalized maximum binding nm shift [17]: 0.38 normalized | EC50 [18]: 4.4 nM | binding signal (nm shift) [19]: 0.11 nm | normalized maximum binding nm shift [20]: 0.07 normalized | Kd [21]: 3.46 nM | Kd [22]: 2.69 nM | Kd [23]: 30 nM | ELISA OD450 [24]: 4.51 OD450 | ELISA OD450 [25]: 4.36 OD450 | ELISA OD450 [26]: 4.52 OD450 | ELISA OD450 [27]: 0.055 OD450 | normalized maximum binding nm shift [28]: 0.68 normalized | Binding (200 nM) Fold-Over-Parental [29]: 304 fold

B2: 16E03 mouse/human chimeric IgG4 (S228P) kappa (antibody, V domains shown)
VH: QVQLQQSGAELARPGASVKMSCKASGYTFTSYTMHWIKQRPGQGLEWIGYINPSSGHTYYNQKFKDKATLTPDKSSSTAYMQLTSLTSEDSAVYYCARRIPTAYAMDYWGQGTSVTVSS
VL: EIQMTQSHKFMSTSVGDRVSITCKASQDVGTAVAWYQQKPGQSPKLLIYWASTRHTGVPDRFTGSGSGTDFTLTISNVQSEDLADYFCQQYSSYPLTFGAGTKLELKR
% Block iC3b (200 nM mAb) [30]: -3% | ELISA OD450 [31]: 4.36 OD450 | normalized maximum binding nm shift [1]: 0.13 normalized | % Block C3b (200 nM mAb) [32]: -192% | normalized maximum binding nm shift [2]: 0.76 normalized | normalized maximum binding nm shift [3]: 0.9 normalized | Binding (200 nM) MFI [4]: 30400 MFI | Kd [7]: 29.7 nM | normalized maximum binding nm shift [9]: 0.37 normalized | normalized maximum binding nm shift [11]: 0.86 normalized | normalized maximum binding nm shift [13]: 0.78 normalized | normalized maximum binding nm shift [16]: 0.04 normalized | normalized maximum binding nm shift [17]: 0.1 normalized | EC50 [18]: 1 nM | normalized maximum binding nm shift [20]: 0.79 normalized | Kd [21]: 49.3 nM | Kd [22]: 49.3 nM | ELISA OD450 [24]: 4.5 OD450 | ELISA OD450 [25]: 4.13 OD450 | ELISA OD450 [27]: 0.054 OD450 | normalized maximum binding nm shift [28]: 0.83 normalized | Binding (200 nM) Fold-Over-Parental [29]: 23 fold

B3: 15C03 mouse/human chimeric IgG4 (S228P) kappa (antibody, V domains shown)
VH: EVKLLESGPGLVKPSQSLSLTCTVTGYSITSDYAWNWIRQFPGNKLEWMGYISYSGSTRYNPSLKSRISITRDTSNNQFFLQLNSVTTEDTATYYCARSGYAAMDYWGQGTSVTVSS
VL: ENVLTQSPAIMSASPGEKVTMTCRASSSVSSSYLHWYQQKSGASPKLWIYSTSNLASGVPARFSGSGSGTSYSLTISSVEAEDAATYYCQQYSGYPLTFGSGTKLEIKR
ELISA OD450 [31]: 4.5 OD450 | normalized maximum binding nm shift [1]: 0.8 normalized | normalized maximum binding nm shift [2]: 0.74 normalized | normalized maximum binding nm shift [3]: 0.76 normalized | Binding (200 nM) MFI [4]: 48900 MFI | Percent Blocking C3b [5]: 90% | Kd [7]: 17.9 nM | normalized maximum binding nm shift [9]: 0.93 normalized | IC50 [10]: 2.4 nM | normalized maximum binding nm shift [11]: 0.89 normalized | Percent Blocking iC3b [33]: 90% | normalized maximum binding nm shift [13]: 0.44 normalized | normalized maximum binding nm shift [16]: 0.13 normalized | IC50 [34]: 12.8 nM | normalized maximum binding nm shift [17]: 0.15 normalized | EC50 [18]: 2.3 nM | normalized maximum binding nm shift [20]: 0.41 normalized | Kd [21]: 32.1 nM | Kd [22]: 18.6 nM | ELISA OD450 [24]: 4.4 OD450 | ELISA OD450 [25]: 3.64 OD450 | ELISA OD450 [27]: 0.057 OD450 | normalized maximum binding nm shift [28]: 0.82 normalized | Binding (200 nM) Fold-Over-Parental [29]: 83 fold
